Measurements taken from PMC5113729 (Nature structural & molecular biology, 2016).

B1: Sp Dcp1(1-127) (natural protein, fission yeast (Sp), UniProt Q9P805 1-127, looked up)
chain: MEDENILRNAVNLQVLKFHYPEIESIIDIASHVAVYQFDVGSQKWLKTSIEGTFFLVKDQRARVGYVILNRNSPENLYLFINHPSNVHLVDRYLIHRTENQHVVGLWMFDPNDMSRIFNIVKESLLR

Columns and labels:
Sp Dcp1(1-127) = molecular target: B1; test: crystal structure
[1] = molecular target: T1, Sp Dcp2(1-243), as part of the single chain (fission yeast (Sp), UniProt O13828 1-243); test: crystal structure
T1 sequence (looked up): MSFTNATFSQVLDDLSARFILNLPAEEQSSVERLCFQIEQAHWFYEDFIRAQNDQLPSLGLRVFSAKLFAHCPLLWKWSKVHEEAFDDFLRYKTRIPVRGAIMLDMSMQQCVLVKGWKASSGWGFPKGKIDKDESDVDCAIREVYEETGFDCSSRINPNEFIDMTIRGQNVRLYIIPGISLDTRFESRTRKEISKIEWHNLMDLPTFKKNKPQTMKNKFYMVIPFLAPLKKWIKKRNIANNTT

Row | Binder | binding result (Sp Dcp1(1-127)) | binding result [1]
1 | Hs PNRC2(91-121) (domain or fragment) not shown | binds | 
2 | B1 |  | binds
